Results taken from the nanobody polyreactivity screen of Harvey et al. (2022).

Test: yeast display, Sf9 membrane polyspecificity reagent, FACS + sequencing; frameworks hold sequencing errors
Outline: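 A synthetic nanobody library was expressed on Saccharomyces cerevisiae BJ5465 by galactose induction for 36–48 hours. The library was stained for 1 hour at 4 °C with 10% biotinylated, detergent-solubilized Sf9 membrane reagent and enriched with streptavidin microbeads before FACS. Low and high (top ~1%) gates were set on anti-HA fluorescence for expression and streptavidin fluorescence for reagent binding, and each polyreactivity label reflects the gate of origin.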

Question: Which “polyreactivity (PSR sort gate)” value does the source give for “QVQLVESGGGLVQAGGSLRVSCAASGRIFGYNAMGWSRQAPVKERELDAAIRGGGSTYYADSVKGRFTISRDNAKHSVYLQMYSLKPEDTAVYYCAATSYTYVLSPYRGDYWGQGTQVTVSS” here?
Answer: high polyreactivity

Question: With “QVQLVESGGGLVQAGGSLRLSCAASGRTFVPYAMGWYRQAPWKERELVASISSSGGSTYYADSVKGRFTISRDNAKNTVYLQMNSLKPEDTAVYYCATADRWSSSYYRSVRWYHYDYWGQGTQVTVSS” as the sequence, how does the “polyreactivity (PSR sort gate)” value read?
Answer: low polyreactivity

Question: Which “polyreactivity (PSR sort gate)” value does the source give for “QVQLVESGGGLVQAGGSLRLSCAASGIIFGYNAMGWYRQAPGKERELVAAISYGGGRSYYADSVKGRFTISRDNAKNTVYFQMNSLKPEDTAVYYCAAQYFASRSYGYDYWGQGTQVTVSS” here?
Answer: high polyreactivity

Question: With “QVQLVESGGGLVQAGGSLRLSCAASGNTFQWYVMGWYRQAPGKERELVAAITTRGGSTYYADSVKGRFTISRDNAKNTVYLQMNSLKPEDTAVYYCAKDWYASWYTKYDYWGQGTQVTVSS” as the sequence, how does the “polyreactivity (PSR sort gate)” value read?
Answer: low polyreactivity

Question: With “QVQLVESGVGLVQAGGSLRLSCAASGFISVNNAMGWYRQAPGKERELVAAITDTDDSTYADSVKGRFTISRDNAKNTVYLQMNSLKPEDTAVYYCAAGIIYSNEPNITSYDYWGQGTQVTVSS” as the sequence, how does the “polyreactivity (PSR sort gate)” value read?
Answer: low polyreactivity

Question: For “QVHLVESGGGLVQAGGSLRLSSAAYGRTFKYNAMGWYRQAPGKRKELVAAISSGGSTYYADSVKGRFTISRDNAKKTVYFQMNSLKPEDTAVYYCAVRNTKSYWFGYWGQGTQVTVSS”, which “polyreactivity (PSR sort gate)” value is on record?
Answer: high polyreactivity

Question: With “QVQLVESGGGLDQARGSLRLSCAASGFTFNYYAMGWYRQAPGKERELVAAISSSGGSTYYADSVKGRFTISRDNAKNTVYLQMNSLKPDDTAVYYCAAPVLPGYNYWGQGTQVTVSS” as the sequence, how does the “polyreactivity (PSR sort gate)” value read?
Answer: high polyreactivity

Question: Which “polyreactivity (PSR sort gate)” value does the source give for “QVQLVESGGGLVQAGGSLRLSCAASGRNFGLNAMGWYRQAPGKERELVAAIDQGDGITYYADSVKGRFTISRDNAKNTVYLQMNSLKTEDTAVYYCAAEVSYKEIYQYYWIYPAYNYWGQGTQVTVSS” here?
Answer: high polyreactivity

Question: Which “polyreactivity (PSR sort gate)” value does the source give for “QVQLVESGGGLVQAGGSLRLSCAASGSTIRTNTMGWYRQAPGKERELVAAITKSGGSTYYADSVKGRFTISRDNAKNTVYLQMNSLKPEDTAVYYCAARVLYRSGLRGDYWGQGTQVTVSS” here?
Answer: high polyreactivity

Question: For “QVQLVESGGGLVQAGGSLRLICAASGRTFAGNAMGWYRQAPGKERELVAAITWSGGSTYYADSVKGRFTISRDNAKNTVYLQMNSLKPEDTAVYYCAADSQPPHELYESIEHESWGQGTQVTVSS”, which “polyreactivity (PSR sort gate)” value is on record?
Answer: low polyreactivity

Question: With “QVQLVESGGGLVQAGGSLRLSCAASGRTFYDYAKGWYRQAPGKERELVASITYYADSVKGRFTISRDNAKNTVYLQMNSLKPEDTSVYYCAKDLYSNDLYRRYDYWGQGTQVTVSS” as the sequence, how does the “polyreactivity (PSR sort gate)” value read?
Answer: low polyreactivity

Question: For “QVQLVESGGGLVQAGGSLRLSCAASGFTFAYYVMGWYRQAPGKERELVAAITRSGDITSYADSVKGRFTISRDNAKNTVYLQMNSLKPEDTAVYYCNARLGYQSRRYNYWGQGTQVTVSS”, which “polyreactivity (PSR sort gate)” value is on record?
Answer: high polyreactivity

Question: With “QVQLVESGGGLVQAGGSLRLSCAASGRTFSVYTMGWYRQAPGKERELVASISRSGGRTYYADSVKGRFTISRDNAKNTVYLQMNSLKPADTAVYYCAARWYSASALKYYYWGQGTQVTVSS” as the sequence, how does the “polyreactivity (PSR sort gate)” value read?
Answer: high polyreactivity

Question: With “QVQLVESGGGLVQAGGSLRLSSAASGSTYFTYAMGWYRQAPGKERELVAAISWSGGTTYYADSVKGRFTISRDNAKNTVYLQMNSLKPEDTAVYYCASARDGILKANDYWGQGTQVTVSS” as the sequence, how does the “polyreactivity (PSR sort gate)” value read?
Answer: low polyreactivity

Question: Which “polyreactivity (PSR sort gate)” value does the source give for “QVQLVESGGGLVQAGGSLRLSCAASGLIFDVNTMGWYRQAPRKERELVAAITGSGGRTYYADSVKGRFTISRDNAKNTVYLQMNSLKPEDNAVYYCNARHPASGDLYRMDYWGQGTQVTVSS” here?
Answer: low polyreactivity

Question: Which “polyreactivity (PSR sort gate)” value does the source give for “QVQLVESGGGLVQAGGSLRLSCAASGLTFYTYAMGWYRQAPGKERELVAAISSGGSTNYADSVKGRFTISRDNAKNTVYLQMNSLKPEDTAVYYCAADPSYYTYFSFDLSESDYWGLGTQVTVSS” here?
Answer: low polyreactivity

Question: With “QVQLVESGGGLVQAGGSLRLSCAASGLTFVYYAMGWFRQAPGKERELVAAISRGGTTYYADSVKGRFTISRDNAKNTVYLQMNSLKPEETAVYYCNAARYGFGSAYDYWGQGTQGTVSS” as the sequence, how does the “polyreactivity (PSR sort gate)” value read?
Answer: high polyreactivity

Question: For “QDQLVESGGGLVQAGGSLRLSCAASGSTFRRYDMGWYRQAPGKERELVAAISHRTGRTSYADSVKGRFTISRDNAKNTVYLQMNSLKTEDTAVYYCAADHTYYRQGYDYWGQGTQVTVSS”, which “polyreactivity (PSR sort gate)” value is on record?
Answer: high polyreactivity

Question: For “QVQLVESGGGLVQAGGSLRLSCAASGSIFNGNAMGWYRQAPGKERELVARITSGSSTYYADSVKGRFTISRDNAKNTVYLQMNSLKPEDTAVYYCAAVYGRYISYRWRSLYDYWGQGTQVTVSS”, which “polyreactivity (PSR sort gate)” value is on record?
Answer: high polyreactivity

Question: Which “polyreactivity (PSR sort gate)” value does the source give for “QVQLVESGGGLVQAGGSLRLSCAASGSIFTINTMGWYRQAPGKERELVAAITGSGGITYYADSVKGRFTISRDNAKNTVYLQMNSLKPEDTAVYYCAADTGYVHDGYWGQGTQVTVSS” here?
Answer: low polyreactivity

Question: With “QVQLVESGGGLVQAGGSLRLSCAASGRIFVYNAMGWYRQAPGKEREFVASINWSGSSTYADSVKGRFTISRDNAKNTVYLQMNSLKQEDTAVYYCAARRWRYEAYRSQYDYGYWGQGTQVTVSS” as the sequence, how does the “polyreactivity (PSR sort gate)” value read?
Answer: low polyreactivity

Question: Which “polyreactivity (PSR sort gate)” value does the source give for “QVQLEDSGRGLFQAGGSLRLSCAASGSIVALYTMGWYRQAPGKEREFVAGIRTGGSTIYADSVKGRFTISRDNAKNTVYLQMNSRKPEDTPVYYDDWGQGTQVTVSS” here?
Answer: low polyreactivity
